# Assay results from the supplement of paper PMC9732359.
# ± gives the uncertainty stated by the source.
# Test: protein stability index of a GFP-peptide fusion (yeast GPS) (PSI 1-4); higher = more stable; sorted into four equal gates, so the index is relative within each strain
# Settings: san1∆
# Summary of the method: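 Mid-log yeast cultures in leucine-free medium, carrying a pooled plasmid library, were sorted into four equal gates by their GFP/Cherry fluorescence ratio. Each plasmid expressed Cherry along with GFP fused upstream of a tiled 17-residue yeast protein peptide. Plasmids recovered from each gate were PCR-amplified and Illumina-sequenced, with reads assigned to strains by barcodes. The protein stability index was obtained by summing each gate's read frequency weighted by its gate number.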
row,Sequence,protein stability index
1,AADNLGSYGSLLRFNGV [PRE4],3.25 ± 0.12
2,AADVSAVDAKQLAQIRQ [YML103C/NUP188],3.25 ± 0.072
3,AAELQEKPLTPLKYTKL [SNF6],2.39 ± 0.17
4,AAGYGKILGKGRIPNVP [RPL28],3.46 ± 0.066
5,AAKPDNLANFSNEVAMN [SWP82],3.15 ± 0.056
6,AAMVIMHLMALHIHGSS [COB],1.35 ± 0.093
7,AAPSGNYKQLTLVGGGA [RRP43],2.23 ± 0.13
8,AAQDVWNRADNHFKDTY [FAS1],3.19 ± 0.11
9,AATMTSAPPPALPHVEI [RGR1],2.49 ± 0.079
10,ACHVEVPYVLMGQIATF [COB],1.87 ± 0.12
11,ADDVFTGTGLQDENIGL [RPC31],3.21 ± 0.057
12,ADKVYTKENLEVSGENV [QCR2],3.2 ± 0.092
13,ADLSSSEEEEDEEENGS [SSN2],3.59 ± 0.084
14,ADNDGPRINNISAEDRA [SNF2],2.9 ± 0.1
15,ADTGRDDTKETVYISSI [RPN11],3.01 ± 0.073
16,ADTIDHDELIDSIPRDV [YGL172W/NUP49],3.07 ± 0.056
17,ADVKGVCTEAGMYALRE [RPT6],1.97 ± 0.12
18,ADVLAMAKVEVNLAAIP [RIP1],1.82 ± 0.22
19,ADVYAKALEGKDLKEIL [RPP1B],3.51 ± 0.14
20,AEASFTFGTKHAADSQN [YLR335W/NUP2],3.03 ± 0.092
21,AEEEEESDDDMGFGLFD [RPP0],3.24 ± 0.046

row,Sequence,protein stability index
1,AEHKYMPYTINELLEMV [BRR2],2.53 ± 0.068
2,AEKELEAEIECFDSTTG [RRP40],3.05 ± 0.1
3,AEKLVPLPICHANSVVA [YML031W/NDC1],1.61 ± 0.2
4,AEKSYLYDSLASTPSIR [RRP42],2.46 ± 0.19
5,AEQEKAKNIISNVLDGN [LRP1],2.63 ± 0.056
6,AEQLKISLSVHTLALEF [RRP46],2.37 ± 0.063
7,AERTMSKKETKLQENRT [SMC2],3.31 ± 0.15
8,AFEAELSNIPLLLITHH [ARP9],1.64 ± 0.089
9,AFGLGAIMSKSSLEELL [ECM29],1.71 ± 0.12
10,AFHNNLKFLYLLDAYSH [MED1],1.16 ± 0.1
11,AFIDERASDLRMTIRTR [RRP43],1.24 ± 0.25
12,AFLSKVPEFFQTANEKH [SRP14],3.37 ± 0.11
13,AFNDSCVNLSLFDARFE [SRB8],3.39 ± 0.091
14,AFNRFMAESLVDLEEVM [SSN8],2.36 ± 0.17
15,AFVKDMQVYLVPIERVA [RPC37],1.39 ± 0.19
16,AGADRLQQGMRGAWGKP [RPL10],2.95 ± 0.12
17,AGEFGLKNKREIYRISF [RPS9B],3.08 ± 0.14
18,AGIPIGLKRSQLDEFKN [SWP82],2.21 ± 0.098
19,AGIRPKFILALNDEGEP [RPN1],2.72 ± 0.24
20,AGNLITTPEINNFIVER [SRP68],3.18 ± 0.061
21,AGNTTTGGGLFGSKPTG [YGL172W/NUP49],2.64 ± 0.11

# Same assay, conditions: ubr1∆
row,Sequence,protein stability index
1,AADNLGSYGSLLRFNGV [PRE4],3.04 ± 0.21
2,AADVSAVDAKQLAQIRQ [YML103C/NUP188],2.5 ± 0.057
3,AAELQEKPLTPLKYTKL [SNF6],2.78 ± 0.13
4,AAGYGKILGKGRIPNVP [RPL28],3.48 ± 0.05
5,AAKPDNLANFSNEVAMN [SWP82],3.23 ± 0.067
6,AAMVIMHLMALHIHGSS [COB],1.35 ± 0.044
7,AAPSGNYKQLTLVGGGA [RRP43],2.5 ± 0.079
8,AAQDVWNRADNHFKDTY [FAS1],3.53 ± 0.13
9,AARHKQHEQGTFEKHDR [RRI2],2.96 ± 0.14
10,AATMTSAPPPALPHVEI [RGR1],2.3 ± 0.055
11,ACHVEVPYVLMGQIATF [COB],1.94 ± 0.066
12,ADDVFTGTGLQDENIGL [RPC31],3.33 ± 0.07
13,ADKVYTKENLEVSGENV [QCR2],3.28 ± 0.052
14,ADLSSSEEEEDEEENGS [SSN2],3.29 ± 0.064
15,ADNDGPRINNISAEDRA [SNF2],1.52 ± 0.24
16,ADTGRDDTKETVYISSI [RPN11],3.16 ± 0.053
17,ADTIDHDELIDSIPRDV [YGL172W/NUP49],2.88 ± 0.075
18,ADVKGVCTEAGMYALRE [RPT6],1.27 ± 0.27
19,ADVLAMAKVEVNLAAIP [RIP1],2.05 ± 0.077
20,ADVYAKALEGKDLKEIL [RPP1B],3.36 ± 0.2
21,AEASFTFGTKHAADSQN [YLR335W/NUP2],2.67 ± 0.091
22,AEEEEESDDDMGFGLFD [RPP0],3.25 ± 0.065

row,Sequence,protein stability index
1,AEHKYMPYTINELLEMV [BRR2],2.65 ± 0.043
2,AEKELEAEIECFDSTTG [RRP40],2.66 ± 0.14
3,AEKLVPLPICHANSVVA [YML031W/NDC1],1.42 ± 0.16
4,AEKSYLYDSLASTPSIR [RRP42],3.2 ± 0.11
5,AEQEKAKNIISNVLDGN [LRP1],2.98 ± 0.05
6,AEQLKISLSVHTLALEF [RRP46],2.25 ± 0.048
7,AERTMSKKETKLQENRT [SMC2],3.04 ± 0.13
8,AFEAELSNIPLLLITHH [ARP9],1.58 ± 0.066
9,AFGLGAIMSKSSLEELL [ECM29],2.06 ± 0.052
10,AFHNNLKFLYLLDAYSH [MED1],1.26 ± 0.042
11,AFIDERASDLRMTIRTR [RRP43],1.39 ± 0.12
12,AFLSKVPEFFQTANEKH [SRP14],3.09 ± 0.26
13,AFNDSCVNLSLFDARFE [SRB8],3.14 ± 0.051
14,AFNRFMAESLVDLEEVM [SSN8],1.62 ± 0.059
15,AFVKDMQVYLVPIERVA [RPC37],1.27 ± 0.21
16,AGADRLQQGMRGAWGKP [RPL10],3.31 ± 0.086
17,AGEFGLKNKREIYRISF [RPS9B],2.77 ± 0.066
18,AGIPIGLKRSQLDEFKN [SWP82],1.38 ± 0.055
19,AGIRPKFILALNDEGEP [RPN1],1.46 ± 0.073
20,AGNLITTPEINNFIVER [SRP68],2.82 ± 0.049
21,AGNTTTGGGLFGSKPTG [YGL172W/NUP49],2.21 ± 0.097
